The source of these data is patent US20220411483A1 (Chugai, published 2022).

Holding throughout (experiment): SPR, antibody captured, FcgR analyte
(In general: In SPR one partner is held on a chip, and binding of the other changes the refractive index at the surface.)

For assay [1], the target named is T1, FcγRIa extracellular domain with C-terminal His tag (human, UniProt P12314 16-292).
T1 construct: also called FcgRIa; CD64; not shown: His tag at the C terminus

Assay [2] addresses T2, FcγRIIa R type extracellular domain with C-terminal His tag (human, UniProt P12318 34-217).
T2 construct: extracellular domain; also called FcgRIIaR; not shown: His tag at the C terminus
T2 sequence (looked up): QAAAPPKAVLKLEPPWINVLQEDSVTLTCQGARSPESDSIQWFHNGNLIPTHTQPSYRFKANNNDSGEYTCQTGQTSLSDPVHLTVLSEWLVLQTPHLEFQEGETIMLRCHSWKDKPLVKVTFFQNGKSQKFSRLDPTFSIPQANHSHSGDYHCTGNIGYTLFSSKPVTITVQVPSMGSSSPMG

Assay [3] concerns the target T3, FcγRIIb extracellular domain with C-terminal His tag (human, UniProt P31994 43-217).
T3 construct: extracellular domain; also called FcgRIIb; not shown: His tag at the C terminus
T3 sequence (looked up): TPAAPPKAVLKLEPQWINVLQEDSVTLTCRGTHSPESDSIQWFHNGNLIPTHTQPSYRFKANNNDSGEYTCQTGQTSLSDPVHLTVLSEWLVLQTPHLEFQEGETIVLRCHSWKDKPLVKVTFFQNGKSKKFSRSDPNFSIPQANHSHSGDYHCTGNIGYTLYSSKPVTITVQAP

T1 sequence (P12314 16-292): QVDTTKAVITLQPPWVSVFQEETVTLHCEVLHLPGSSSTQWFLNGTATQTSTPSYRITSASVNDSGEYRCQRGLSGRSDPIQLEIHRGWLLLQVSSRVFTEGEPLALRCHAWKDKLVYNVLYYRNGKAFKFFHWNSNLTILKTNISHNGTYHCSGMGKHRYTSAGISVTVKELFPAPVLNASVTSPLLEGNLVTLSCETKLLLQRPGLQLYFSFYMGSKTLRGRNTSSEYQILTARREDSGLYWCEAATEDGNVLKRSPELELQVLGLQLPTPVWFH

B1: IL6R-BP249/IL6R-L (antibody, human IgG1, kappa, name in EU numbering)
heavy: QVQLQESGPGLVKPSETLSLTCAVSGHSISHDHAWSWVRQPPGEGLEWIGFISYSGITNYNPSLQGRVTISRDNSKNTLYLQMNSLRAEDTAVYYCARSLARTTAMDYWGEGTLVTVSSASTKGPSVFPLAPSSKSTSGGTAALGCLVKDYFPEPVTVSWNSGALTSGVHTFPAVLQSSGLYSLSSVVTVPSSSLGTQTYICNVNHKPSNTKVDKKVEPKSCDKTHTCPPCPAPDYLGDDSVFLFPPKPKDTLMISRTPEVTCVVVDVSDEDGEVKFNWYVDGVEVHNAKTKPREEQDNSTYRVVSVLTVLHQDWLNGKEYKCKVSNKALPRPIEKTISKAKGQPREPQVYTLPPSRDELTKNQVSLTCLVKGFYPSDIAVEWESNGQPENNYKTTPPVLDSDGSFFLYSKLTVDKSRWQQGNVFSCSVMHEALHNHYTQESLSLSP
light: not shown
notes: human IgG1
For the molecule B1, the Kd (in general, the free concentration of one partner at which half of the binding sites on the other are occupied at equilibrium, for simple one-to-one binding) in assay [1] was 7 nM.

B2: IL6R-BP264/IL6R-L (antibody, human IgG1, kappa, name in EU numbering)
heavy: QVQLQESGPGLVKPSETLSLTCAVSGHSISHDHAWSWVRQPPGEGLEWIGFISYSGITNYNPSLQGRVTISRDNSKNTLYLQMNSLRAEDTAVYYCARSLARTTAMDYWGEGTLVTVSSASTKGPSVFPLAPSSKSTSGGTAALGCLVKDYFPEPVTVSWNSGALTSGVHTFPAVLQSSGLYSLSSVVTVPSSSLGTQTYICNVNHKPSNTKVDKKVEPKSCDKTHTCPPCPAPDLLGDDSVFLFPPKPKDTLMISRTPEVTCVVVDVSEEDGEVKFNWYVDGVEVHNAKTKPREEQDNSTYRVVSVLTVLHQDWLNGKEYKCKVSNKALPRPIEKTISKAKGQPREPQVYTLPPSRDELTKNQVSLTCLVKGFYPSDIAVEWESNGQPENNYKTTPPVLDSDGSFFLYSKLTVDKSRWQQGNVFSCSVMHEALHNHYTQESLSLSP
light: not shown
notes: human IgG1
For B2, the results for the Kd in assay [1] and in assay [2] were 7.4 nM and 350 nM, respectively.

B3: IL6R-BP495/IL6R-L (antibody, human IgG1, kappa, name in EU numbering)
heavy: QVQLQESGPGLVKPSETLSLTCAVSGHSISHDHAWSWVRQPPGEGLEWIGFISYSGITNYNPSLQGRVTISRDNSKNTLYLQMNSLRAEDTAVYYCARSLARTTAMDYWGEGTLVTVSSASTKGPSVFPLAPSSKSTSGGTAALGCLVKDYFPEPVTVSWNSGALTSGVHTFPAVLQSSGLYSLSSVVTVPSSSLGTQTYICNVNHKPSNTKVDKKVEPKSCDKTHTCPPCPAPELLGDDSVFLFPPKPKDTLMISRTPEVTCVVVDVGEEDGEVKFNWYVDGVEVHNAKTKPREEQDNSTYRVVSVLTVLHQDWLNGKEYKCKVSNKALPRPIEKTISKAKGQPREPQVYTLPPSRDELTKNQVSLTCLVKGFYPSDIAVEWESNGQPENNYKTTPPVLDSDGSFFLYSKLTVDKSRWQQGNVFSCSVMHEALHNHYTQESLSLSP
light: not shown
notes: human IgG1
With B3, the Kd in assay [1] is 8.3 nM; in assay [3], 9.7 nM.

B4: IL6R-BP268/IL6R-L (antibody, human IgG1, kappa, name in EU numbering)
heavy: QVQLQESGPGLVKPSETLSLTCAVSGHSISHDHAWSWVRQPPGEGLEWIGFISYSGITNYNPSLQGRVTISRDNSKNTLYLQMNSLRAEDTAVYYCARSLARTTAMDYWGEGTLVTVSSASTKGPSVFPLAPSSKSTSGGTAALGCLVKDYFPEPVTVSWNSGALTSGVHTFPAVLQSSGLYSLSSVVTVPSSSLGTQTYICNVNHKPSNTKVDKKVEPKSCDKTHTCPPCPAPDLLGDDSVFLFPPKPKDTLMISRTPEVTCVVVDVSEEDGEVKFNWYVDGVEVHNAKTKPREEQDNSTYRVVSVLTVLHQDWLNGKEYKCKVSNKALPAPIEKTISKAKGQPREPQVYTLPPSRDELTKNQVSLTCLVKGFYPSDIAVEWESNGQPENNYKTTPPVLDSDGSFFLYSKLTVDKSRWQQGNVFSCSVMHEALHNHYTQESLSLSP
light: not shown
notes: human IgG1
Take B4: the equilibrium dissociation constant (Kd) is 4.5 nM in assay [1] and 92 nM in assay [3].

B5: IL6R-BP435/IL6R-L (antibody, human IgG1, kappa, name in EU numbering)
heavy: QVQLQESGPGLVKPSETLSLTCAVSGHSISHDHAWSWVRQPPGEGLEWIGFISYSGITNYNPSLQGRVTISRDNSKNTLYLQMNSLRAEDTAVYYCARSLARTTAMDYWGEGTLVTVSSASTKGPSVFPLAPSSKSTSGGTAALGCLVKDYFPEPVTVSWNSGALTSGVHTFPAVLQSSGLYSLSSVVTVPSSSLGTQTYICNVNHKPSNTKVDKKVEPKSCDKTHTCPPCPAPDLLGDDSVFLFPPKPKDTLMISRTPEVTCVVVDVSDEDGEVKFNWYVDGVEVHNAKTKPREEQDNSTYRVVSVLTVLHQDWLNGKEYKCKVSNAALPRPTEKTISKAKGQPREPQVYTLPPSRDELTKNQVSLTCLVKGFYPSDIAVEWESNGQPENNYKTTPPVLDSDGSFFLYSKLTVDKSRWQQGNVFSCSVMHEALHNHYTQESLSLSP
light: not shown
notes: human IgG1
B5 displayed a Kd in assay [1] of 1 nM.

B6: IL6R-BP501/IL6R-L (antibody, human IgG1, kappa, name in EU numbering)
heavy: QVQLQESGPGLVKPSETLSLTCAVSGHSISHDHAWSWVRQPPGEGLEWIGFISYSGITNYNPSLQGRVTISRDNSKNTLYLQMNSLRAEDTAVYYCARSLARTTAMDYWGEGTLVTVSSASTKGPSVFPLAPSSKSTSGGTAALGCLVKDYFPEPVTVSWNSGALTSGVHTFPAVLQSSGLYSLSSVVTVPSSSLGTQTYICNVNHKPSNTKVDKKVEPKSCDKTHTCPPCPAPELLGDDSVFLFPPKPKDTLMISRTPEVTCVVIDVAEEDGEVKFNWYVDGVEVHNAKTKPREEQYNSTYRVVSVLTVLHQDWLNGKEYKCKVSNKALPAPIEKTISKAKGQPREPQVYTLPPSRDELTKNQVSLTCLVKGFYPSDIAVEWESNGQPENNYKTTPPVLDSDGSFFLYSKLTVDKSRWQQGNVFSCSVMHEALHNHYTQESLSLSP
light: not shown
notes: human IgG1
Regarding B6, the Kd in assay [1] came to 2.1 nM; in assay [3], 25 nM.

B7: IL6R-BP557/IL6R-L (antibody, human IgG1, kappa, name in EU numbering)
heavy: QVQLQESGPGLVKPSETLSLTCAVSGHSISHDHAWSWVRQPPGEGLEWIGFISYSGITNYNPSLQGRVTISRDNSKNTLYLQMNSLRAEDTAVYYCARSLARTTAMDYWGEGTLVTVSSASTKGPSVFPLAPSSKSTSGGTAALGCLVKDYFPEPVTVSWNSGALTSGVHTFPAVLQSSGLYSLSSVVTVPSSSLGTQTYICNVNHKPSNTKVDKKVEPKSCDKTHTCPPCPAPELLGDDSVFLFPPKPKDTLMISRTPEVTCVVVDVGDEDGEVKFNWYVDGVEVHNAKTKPREEQDNSTYRVVSVLTVLHQDWLNGKEYKCKVSNKALPRPIEKTISKAKGQPREPQVYTLPPSRDELTKNQVSLTCLVKGFYPSDIAVEWESNGQPENNYKTTPPVLDSDGSFFLYSKLTVDKSRWQQGNVFSCSVMHEALHNHYTQESLSLSP
light: not shown
notes: human IgG1
Turning to B7, the dissociation constant Kd amounted to 850 nM in assay [2] and 20 nM in assay [3].

B8: IL6R-BP445/IL6R-L (antibody, human IgG1, kappa, name in EU numbering)
heavy: QVQLQESGPGLVKPSETLSLTCAVSGHSISHDHAWSWVRQPPGEGLEWIGFISYSGITNYNPSLQGRVTISRDNSKNTLYLQMNSLRAEDTAVYYCARSLARTTAMDYWGEGTLVTVSSASTKGPSVFPLAPSSKSTSGGTAALGCLVKDYFPEPVTVSWNSGALTSGVHTFPAVLQSSGLYSLSSVVTVPSSSLGTQTYICNVNHKPSNTKVDKKVEPKSCDKTHTCPPCPAPDLLGDDSVFLFPPKPKDTLMISRTPEVTCVVIDVAEEDGEVKFNWYVDGVEVHNAKTKPREEQYNSTYRVVSVLTVLHQDWLNGKEYKCKVSNKALPRPIEKTISKAKGQPREPQVYTLPPSRDELTKNQVSLTCLVKGFYPSDIAVEWESNGQPENNYKTTPPVLDSDGSFFLYSKLTVDKSRWQQGNVFSCSVMHEALHNHYTQESLSLSP
light: not shown
notes: human IgG1
For the molecule B8, the Kd in assay [1] turned out to be 2 nM; in assay [2], 80 nM; in assay [3], 2.6 nM.

B9: IL6R-BP493/IL6R-L (antibody, human IgG1, kappa, name in EU numbering)
heavy: QVQLQESGPGLVKPSETLSLTCAVSGHSISHDHAWSWVRQPPGEGLEWIGFISYSGITNYNPSLQGRVTISRDNSKNTLYLQMNSLRAEDTAVYYCARSLARTTAMDYWGEGTLVTVSSASTKGPSVFPLAPSSKSTSGGTAALGCLVKDYFPEPVTVSWNSGALTSGVHTFPAVLQSSGLYSLSSVVTVPSSSLGTQTYICNVNHKPSNTKVDKKVEPKSCDKTHTCPPCPAPELLGGDSVFLFPPKPKDTLMISRTPEVTCVVIDVAEEDGEVKFNWYVDGVEVHNAKTKPREEQDNSTYRVVSVLTVLHQDWLNGKEYKCKVSNKALPAPIEKTISKAKGQPREPQVYTLPPSRDELTKNQVSLTCLVKGFYPSDIAVEWESNGQPENNYKTTPPVLDSDGSFFLYSKLTVDKSRWQQGNVFSCSVMHEALHNHYTQESLSLSP
light: not shown
notes: human IgG1
In the case of B9, the values for the dissociation constant (Kd) in assay [1] and in assay [3] were 0.82 nM and 21 nM, respectively.

B10: IL6R-BP480/IL6R-L (antibody, human IgG1, kappa, name in EU numbering)
heavy: QVQLQESGPGLVKPSETLSLTCAVSGHSISHDHAWSWVRQPPGEGLEWIGFISYSGITNYNPSLQGRVTISRDNSKNTLYLQMNSLRAEDTAVYYCARSLARTTAMDYWGEGTLVTVSSASTKGPSVFPLAPSSKSTSGGTAALGCLVKDYFPEPVTVSWNSGALTSGVHTFPAVLQSSGLYSLSSVVTVPSSSLGTQTYICNVNHKPSNTKVDKKVEPKSCDKTHTCPPCPAPDLLGDDSVFLFPPKPKDTLMISRTPEVTCVVVDLSEDDGEVKFNWYVDGVEVHNAKTKPREEQYNSTYRVVSVLTVLHQDWLNGKEYKCKVSNKALPAPIEKTISKAKGQPREPQVYTLPPSRDELTKNQVSLTCLVKGFYPSDIAVEWESNGQPENNYKTTPPVLDSDGSFFLYSKLTVDKSRWQQGNVFSCSVMHEALHNHYTQESLSLSP
light: not shown
notes: human IgG1
On to B10, for which the figures for the Kd in assay [2] and in assay [3] were 6300 nM and 200 nM, respectively.

B11: IL6R-BP426/IL6R-L (antibody, human IgG1, kappa, name in EU numbering)
heavy: QVQLQESGPGLVKPSETLSLTCAVSGHSISHDHAWSWVRQPPGEGLEWIGFISYSGITNYNPSLQGRVTISRDNSKNTLYLQMNSLRAEDTAVYYCARSLARTTAMDYWGEGTLVTVSSASTKGPSVFPLAPSSKSTSGGTAALGCLVKDYFPEPVTVSWNSGALTSGVHTFPAVLQSSGLYSLSSVVTVPSSSLGTQTYICNVNHKPSNTKVDKKVEPKSCDKTHTCPPCPAPDLLGDDSVFLFPPKPKDTLMISRTPEVTCVVVDVAEDDGEVKFNWYVDGVEVHNAKTKPREEQYNSTYRVVSVLTVLHQDWLNGKEYKCKVSNKALPRPIEKTISKAKGQPREPQVYTLPPSRDELTKNQVSLTCLVKGFYPSDIAVEWESNGQPENNYKTTPPVLDSDGSFFLYSKLTVDKSRWQQGNVFSCSVMHEALHNHYTQESLSLSP
light: not shown
notes: human IgG1
For the molecule B11, the equilibrium dissociation constant (Kd) in assay [1] is 1 nM.
